Test results: patent publication US20200071711, “MODULAR CONSTRUCTION OF SYNTHETIC GENE CIRCUITS IN MAMMALIAN CELLS USING MATHEMATICAL MODELING OF CLOSED LOOP TRANSCRIPTIONAL REPRESSORS” (Tsinghua University, published 2020)

Columns and labels:
[1] = system: TALER10 (synthetic); assay: cell_activity; details: for activity (mKate2/TagBFP): cognate 0.00
[2] = system: TALER9 (synthetic); assay: cell_activity; details: for activity (mKate2/TagBFP): cognate 0.01
[3] = system: TALER5 (synthetic); assay: cell_activity
[4] = target: T1, TALER26 (synthetic, UniProt P14727 SEQ:263-1244); assay: cell_activity; HEK293, two sites flanking CMVmini; details: tags: EYFP-2A upstream, SV40 NLS
T1 chain: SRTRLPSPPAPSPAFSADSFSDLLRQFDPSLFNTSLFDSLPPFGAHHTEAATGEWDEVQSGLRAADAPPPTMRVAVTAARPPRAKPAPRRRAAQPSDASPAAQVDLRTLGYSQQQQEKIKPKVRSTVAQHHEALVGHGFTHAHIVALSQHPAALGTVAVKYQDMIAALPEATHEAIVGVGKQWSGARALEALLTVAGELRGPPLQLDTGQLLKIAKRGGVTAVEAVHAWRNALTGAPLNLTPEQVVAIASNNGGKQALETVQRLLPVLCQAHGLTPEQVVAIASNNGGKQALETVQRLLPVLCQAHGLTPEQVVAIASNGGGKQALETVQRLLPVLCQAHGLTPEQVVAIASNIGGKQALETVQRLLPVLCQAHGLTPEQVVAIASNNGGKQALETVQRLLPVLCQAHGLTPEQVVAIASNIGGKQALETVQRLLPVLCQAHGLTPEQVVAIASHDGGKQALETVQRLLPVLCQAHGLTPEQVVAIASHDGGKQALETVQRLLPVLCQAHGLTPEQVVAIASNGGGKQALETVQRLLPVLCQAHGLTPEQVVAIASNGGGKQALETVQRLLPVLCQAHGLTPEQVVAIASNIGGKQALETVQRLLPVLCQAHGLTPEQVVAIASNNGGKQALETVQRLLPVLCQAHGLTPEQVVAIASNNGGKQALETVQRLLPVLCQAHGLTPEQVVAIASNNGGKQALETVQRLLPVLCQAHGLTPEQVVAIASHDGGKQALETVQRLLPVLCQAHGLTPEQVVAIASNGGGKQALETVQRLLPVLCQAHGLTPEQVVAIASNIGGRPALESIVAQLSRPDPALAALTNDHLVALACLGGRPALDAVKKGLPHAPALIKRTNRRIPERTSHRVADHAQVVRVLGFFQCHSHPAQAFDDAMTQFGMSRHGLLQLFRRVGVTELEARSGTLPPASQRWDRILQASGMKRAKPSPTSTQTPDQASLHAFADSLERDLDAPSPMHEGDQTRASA

[5] = target: T2, TALER24 (synthetic, UniProt P14727 SEQ:1-806); assay: cell_activity; HEK293, two sites flanking CMVmini; details: tags: EYFP-2A upstream, SV40 NLS
T2 chain: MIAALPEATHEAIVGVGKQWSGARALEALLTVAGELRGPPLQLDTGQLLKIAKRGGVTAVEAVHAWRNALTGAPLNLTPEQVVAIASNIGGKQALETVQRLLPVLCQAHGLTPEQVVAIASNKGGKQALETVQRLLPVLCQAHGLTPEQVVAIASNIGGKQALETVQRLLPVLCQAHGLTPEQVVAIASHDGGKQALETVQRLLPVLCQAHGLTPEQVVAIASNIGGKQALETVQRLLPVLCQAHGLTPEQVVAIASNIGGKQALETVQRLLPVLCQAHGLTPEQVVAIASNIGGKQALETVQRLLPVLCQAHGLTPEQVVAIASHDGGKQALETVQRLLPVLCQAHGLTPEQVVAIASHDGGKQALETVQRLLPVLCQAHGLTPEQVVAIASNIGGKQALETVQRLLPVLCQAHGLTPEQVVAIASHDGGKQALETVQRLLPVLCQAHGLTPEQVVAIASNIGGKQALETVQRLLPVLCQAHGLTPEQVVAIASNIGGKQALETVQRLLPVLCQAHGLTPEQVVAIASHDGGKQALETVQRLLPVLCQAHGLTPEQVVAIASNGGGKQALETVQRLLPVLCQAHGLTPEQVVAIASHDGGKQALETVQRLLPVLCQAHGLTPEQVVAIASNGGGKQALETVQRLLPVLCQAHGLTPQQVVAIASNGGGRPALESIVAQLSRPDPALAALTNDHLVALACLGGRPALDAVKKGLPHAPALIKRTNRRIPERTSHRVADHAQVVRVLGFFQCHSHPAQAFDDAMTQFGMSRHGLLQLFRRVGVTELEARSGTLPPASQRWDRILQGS

[6] = HEK293, two sites flanking CMVmini

Q: Which activity (mKate2/TagBFP) [1] does the source give for “TACCCCTCTCCGCTTCT (double strand) [T14 site]” here?
A: 1.46

Q: And the activity (mKate2/TagBFP) [2]?
A: 4.42

Q: Which results are given for “TACCTCATCAGGAACATGTT (double strand) [T10 site]”?
A: binding signal (fold repression) [1, 6]: 1310; activity (mKate2/TagBFP) [2]: 2.54

Q: How did the activity (mKate2/TagBFP) [1] turn out when “TACGACTCACTATA (double strand) [T1 site]” was run?
A: 2.51

Q: And the activity (mKate2/TagBFP) [2]?
A: 5.14

Q: Which binding signal (fold repression) [3, 6] does the source give for “TACTGAATAATCAACACT (double strand) [T5 site]” here?
A: 17.9

Q: How did the binding signal (fold repression) ([3]; HEK293, three 3' sites (15.43 with one)) turn out when “TACTGAATAATCAACACTGAATTCTAGGCGTGTACGGTGGGAGGCCTATATAAGCAGAGCTCGTTTAGTGAACCGTCAGATCGCCTCGAGTACTGAATAATCAACACTTACTGAATAATCAACACTTACTGAATAATCAACACT (double strand) [T5-CMVmini-T5x3]” was run?
A: 281

Q: How did the activity (mKate2/TagBFP) [1] turn out when “TATAGAACCGATCCTCCCATT (double strand) [T9 site]” was run?
A: 0.84

Q: What about the binding signal (fold repression) [2, 6] of the same molecule?
A: 636

Q: With “TATTTCGACGCTCATTCT (double strand) [T12 site]” as the molecule, how does the activity (mKate2/TagBFP) [1] read?
A: 1.04

Q: What about the activity (mKate2/TagBFP) [2] of the same molecule?
A: 2.38

Q: With “TCCCGGAAGCCGATGCT (double strand) [T13 site]” as the molecule, how does the activity (mKate2/TagBFP) [1] read?
A: 0.93

Q: What about the activity (mKate2/TagBFP) [2] of the same molecule?
A: 2.17

Q: What does the source list for “TCCGCCTCCCTCTC (double strand) [T29 site]”?
A: activity (mKate2/TagBFP) [1]: 1.19; activity (mKate2/TagBFP) [2]: 2.94

Q: For “TGCCCTCGGCCATCAGAAGGATCTT (double strand) [T16 site]”, which activity (mKate2/TagBFP) [1] is on record?
A: 1.66

Q: And the activity (mKate2/TagBFP) [2]?
A: 3.97

Q: “TGTCGTCTTCTGCACTTAT (double strand) [T21 site]” was tested. Which activity (mKate2/TagBFP) [1] did it give?
A: 1.06

Q: And the activity (mKate2/TagBFP) [2]?
A: 2.95

Q: What does the source list for “TTTATTCCCTGACA (double strand) [T35 site]”?
A: activity (mKate2/TagBFP) [1]: 1.03; activity (mKate2/TagBFP) [2]: 2.15

B1: T26 site (dsDNA)
DNA 1: TGGTAGACCTTAGGGCTA
DNA 2: TAGCCCTAAGGTCTACCA
Q: For B1, which binding signal [4] is on record?
A: 148 fold repression

B2: T24 site (dsDNA)
DNA 1: TAGACAAACCACAACTCTT
DNA 2: AAGAGTTGTGGTTTGTCTA
Q: With B2 as the molecule, how does the binding signal [5] read?
A: 10.9 fold repression
